Earlier results as cited in paper PMC10876879, “Sustained silencing peanut allergy by xanthopurpurin is associated with suppression of peripheral and bone marrow IgE-producing B cell” (Frontiers in Immunology, 2024).

Tested on: IgE
Set-up: method as in PMID 15025403, PMID 12637608
Conditions: double-blind, randomized trial, 2003

B1: TNX-901: anti-IgE antibody (antibody, chains of the INN, looked up, V domains shown)
VH: QVQLVQSGAEVKKPGASVKVSCKASGYTFSMYWLEWVRQAPGHGLEWVGEISPGTFTTNYNEKFKARATFTADTSTNTAYMELSSLRSEDTAVYYCARFSHFSGSNYDYFDYWGQGTLVTVSS
VL: DILLTQSPGTLSLSPGERATLSCRASQSIGTNIHWYQQKPGQAPRLLIKYASESISGIPSRFSGSGSGTDFTLTISRLEPEDFAMYYCQQSDSWPTTFGQGTKVEIK
In the case of B1, the “Threshold of the sensitivity of patients to peanut” value is given as “significantly increased”.
